Reference: PMC4096160 (Nature structural & molecular biology, 2013)

B1: cellular hUPF1 (natural protein)
chain: MSVEAYGPSSQTLTFLDTEEAELLGADTQGSEFEFTDFTLPSQTQTPPGGPGGPGGGGAGGPGGAGAGAAAGQLDAQVGPEGILQNGAVDDSVAKTSQLLAELNFEEDEEDTYYTKDLPIHACSYCGIHDPACVVYCNTSKKWFCNGRGNTSGSHIVNHLVRAKCKEVTLHKDGPLGETVLECYNCGCRNVFLLGFIPAKADSVVVLLCRQPCASQSSLKDINWDSSQWQPLIQDRCFLSWLVKIPSEQEQLRARQITAQQINKLEELWKENPSATLEDLEKPGVDEEPQHVLLRYEDAYQYQNIFGPLVKLEADYDKKLKESQTQDNITVRWDLGLNKKRIAYFTLPKTDSGNEDLVIIWLRDMRLMQGDEICLRYKGDLAPLWKGIGHVIKVPDNYGDEIAIELRSSVGAPVEVTHNFQVDFVWKSTSFDRMQSALKTFAVDETSVSGYIYHKLLGHEVEDVIIKCQLPKRFTAQGLPDLNHSQVYAVKTVLQRPLSLIQGPPGTGKTVTSATIVYHLARQGNGPVLVCAPSNIAVDQLTEKIHQTGLKVVRLCAKSREAIDSPVSFLALHNQIRNMDSMPELQKLQQLKDETGELSSADEKRYRALKRTAERELLMNADVICCTCVGAGDPRLAKMQFRSILIDESTQATEPECMVPVVLGAKQLILVGDHCQLGPVVMCKKAAKAGLSQSLFERLVVLGIRPIRLQVQYRMHPALSAFPSNIFYEGSLQNGVTAADRVKKGFDFQWPQPDKPMFFYVTQGQEEIASSGTSYLNRTEAANVEKITTKLLKAGAKPDQIGIITPYEGQRSYLVQYMQFSGSLHTKLYQEVEIASVDAFQGREKDFIILSCVRANEHQGIGFLNDPRRLNVALTRARYGVIIVGNPKALSKQPLWNHLLNYYKEQKVLVEGPLNNLRESLMQFSKPRKLVNTINPGARFMTTAMYDAREAIIPGSVYDRSSQGRPSSMYFQTHDQIGMISAGPSHVAAMNIPIPFNLVMPPMPPPGYFGQANGPAAGRGTPKGKTGRGGRQKNRFGLPGPSQTNLPNSQASQDVASQPFSQGALTQGYISMSQPSQMSQPGLSQPELSQDSYLGDEFKSQIDVALSQDSTYQGERAYQHGGVTGLSQY
B2: hSTAU1 SSM-‘RBD’5 (hSTAU1 amino acids 367–476) (domain or fragment)
chain: KATVTAMIARELLYGGTSPTAETILKNNISSGHVPHGPLTRPSEQLDYLSRVQGFQVEYKDFPKNNKNEFVSLINCSSQPPLISHGIGKDVESCHDMAALNILKLLSELD
B3: hSTAU1-‘RBD’2-RBD3 (amino acids 43–173) (domain or fragment)
chain: PLLYQVELSVGGQQFNGKGKTRQAAKHDAAAKALRILQNEPLPERLEVNGRESEEENLNKSEISQVFEIALKRNLPVNFEVARESGPPHMKNFVTKVSVGEFVGEGEGKSKKISKKNAAIAVLEELKKLPP

Assays:
[1] = biological target: hSTAU1^55(R)Δ(SSM-‘RBD’5)-FLAG (human); assay: co-IP
[2] = biological target: hSTAU1^55-HA3 (human) (UniProt O95793); assay: co-IP
[3] = biological target: the molecule itself; assay: SEC
[4] = biological target: the molecule itself; assay: AUC

Chain of hSTAU1^55-HA3 (human) (O95793 82-577): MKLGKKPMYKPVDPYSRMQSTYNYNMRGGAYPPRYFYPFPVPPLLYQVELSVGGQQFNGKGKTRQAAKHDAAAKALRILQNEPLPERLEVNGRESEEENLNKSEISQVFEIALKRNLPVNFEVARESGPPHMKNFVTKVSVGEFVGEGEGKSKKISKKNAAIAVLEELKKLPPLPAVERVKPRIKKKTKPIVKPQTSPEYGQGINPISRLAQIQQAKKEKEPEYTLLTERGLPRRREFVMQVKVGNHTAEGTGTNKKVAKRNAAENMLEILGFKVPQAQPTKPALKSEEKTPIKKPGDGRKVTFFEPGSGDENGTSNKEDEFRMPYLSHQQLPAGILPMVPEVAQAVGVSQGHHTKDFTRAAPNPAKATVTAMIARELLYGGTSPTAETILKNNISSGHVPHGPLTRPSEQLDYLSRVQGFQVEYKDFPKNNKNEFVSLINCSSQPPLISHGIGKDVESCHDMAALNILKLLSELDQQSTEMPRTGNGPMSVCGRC

Molecule	level of co-immunoprecipitation as percent of that with WT or Δ(C-Term) [1] [%]	stoichiometry N [3]	further results
hSTAU1^55-HA3 (from UniProt O95793-2 1-496) (natural protein)	10	–	–
hSTAU1^55(R)Δ(SSM-‘RBD’5)-FLAG (domain or fragment)	–	–	level of co-immunoprecipitation as percent of that of WT or Δ(C-Term) [2]: 10%
B1	10	–	–
B2	–	2	Kd [4]: 79 ± 9 µM
B3	–	2	–
